{
  "source": "paper PMC8298264",
  "about": "“Function of cofactor Akirin2 in the regulation of gene expression in model human neutrophil-like HL60 cells” (Bioscience Reports, 2021)",
  "molecules": {"B1": {"name": "sp¦P62995¦TRA2B_HUMAN (protein, UniProt P62995 2-288, looked up)", "Transformer-2 protein homolog …": "SDSGEQNYGERESRSASRSGSAHGSGKSARHTPARSRSKEDSRRSRSKSRSRSESRSRSRRSSRRHYTRSRSRSRSHRRSRSRSYSRDYRRRHSHSHSPMSTRRRHVGNRANPDPNCCLGVFGLSLYTTERDLREVFSKYGPIADVSIVYDQQSRRSRGFAFVYFENVDDAKEAKERANGMELDGRRIRVDFSITKRPHTPTPGIYMGRPTYGSSRRRDYYDRGYDRGYDDRDYYSRSYRGGGGGGGGWRAAQDRDQIYRRRSPSPYYSRGGYRSRSRSRSYSPRRY"}, "B2": {"name": "sp¦Q8N335¦GPD1L_HUMAN (protein, UniProt Q8N335 1-351, looked up)", "Glycerol-3-phosphate …": "MAAAPLKVCIVGSGNWGSAVAKIIGNNVKKLQKFASTVKMWVFEETVNGRKLTDIINNDHENVKYLPGHKLPENVVAMSNLSEAVQDADLLVFVIPHQFIHRICDEITGRVPKKALGITLIKGIDEGPEGLKLISDIIREKMGIDISVLMGANIANEVAAEKFCETTIGSKVMENGLLFKELLQTPNFRITVVDDADTVELCGALKNIVAVGAGFCDGLRCGDNTKAAVIRLGLMEMIAFARIFCKGQVSTATFLESCGVADLITTCYGGRNRRVAEAFARTGKTIEELEKEMLNGQKLQGPQTSAEVYRILKQKGLLDKFPLFTAVYQICYESRPVQEMLSCLQSHPEHT"}, "B3": {"name": "sp¦O60306¦AQR_HUMAN (protein, UniProt O60306 1-1485, looked up)", "RNA helicase aquarius": "MAAPAQPKKIVAPTVSQINAEFVTQLACKYWAPHIKKKSPFDIKVIEDIYEKEIVKSRFAIRKIMLLEFSQYLENYLWMNYSPEVSSKAYLMSICCMVNEKFRENVPAWEIFKKKPDHFPFFFKHILKAALAETDGEFSLHEQTVLLLFLDHCFNSLEVDLIRSQVQQLISLPMWMGLQLARLELELKKTPKLRKFWNLIKKNDEKMDPEAREQAYQERRFLSQLIQKFISVLKSVPLSEPVTMDKVHYCERFIELMIDLEALLPTRRWFNTILDDSHLLVHCYLSNLVRREEDGHLFSQLLDMLKFYTGFEINDQTGNALTENEMTTIHYDRITSLQRAAFAHFPELYDFALSNVAEVDTRESLVKFFGPLSSNTLHQVASYLCLLPTLPKNEDTTFDKEFLLELLVSRHERRISQIQQLNQMPLYPTEKIIWDENIVPTEYYSGEGCLALPKLNLQFLTLHDYLLRNFNLFRLESTYEIRQDIEDSVSRMKPWQSEYGGVVFGGWARMAQPIVAFTVVEVAKPNIGENWPTRVRADVTINLNVRDHIKDEWEGLRKHDVCFLITVRPTKPYGTKFDRRRPFIEQVGLVYVRGCEIQGMLDDKGRVIEDGPEPRPNLRGESRTFRVFLDPNQYQQDMTNTIQNGAEDVYETFNIIMRRKPKENNFKAVLETIRNLMNTDCVVPDWLHDIILGYGDPSSAHYSKMPNQIATLDFNDTFLSIEHLKASFPGHNVKVTVEDPALQIPPFRITFPVRSGKGKKRKDADVEDEDTEEAKTLIVEPHVIPNRGPYPYNQPKRNTIQFTHTQIEAIRAGMQPGLTMVVGPPGTGKTDVAVQIISNIYHNFPEQRTLIVTHSNQALNQLFEKIMALDIDERHLLRLGHGEEELETEKDFSRYGRVNYVLARRIELLEEVKRLQKSLGVPGDASYTCETAGYFFLYQVMSRWEEYISKVKNKGSTLPDVTEVSTFFPFHEYFANAPQPIFKGRSYEEDMEIAEGCFRHIKKIFTQLEEFRASELLRSGLDRSKYLLVKEAKIIAMTCTHAALKRHDLVKLGFKYDNILMEEAAQILEIETFIPLLLQNPQDGFSRLKRWIMIGDHHQLPPVIKNMAFQKYSNMEQSLFTRFVRVGVPTVDLDAQGRARASLCNLYNWRYKNLGNLPHVQLLPEFSTANAGLLYDFQLINVEDFQGVGESEPNPYFYQNLGEAEYVVALFMYMCLLGYPADKISILTTYNGQKHLIRDIINRRCGNNPLIGRPNKVTTVDRFQGQQNDYILLSLVRTRAVGHLRDVRRLVVAMSRARLGLYIFARVSLFQNCFELTPAFSQLTARPLHLHIIPTEPFPTTRKNGERPSHEVQIIKNMPQMANFVYNMYMHLIQTTHHYHQTLLQLPPAMVEEGEEVQNQETELETEEEAMTVQADIIPSPTDTSCRQETPAFQTDTTPSETGATSTPEAIPALSETTPTVVGAVSAPAEANTPQDATSAPEETK"}, "B4": {"name": "sp¦P40926¦MDHM_HUMAN (protein, UniProt P40926 25-338, looked up)", "Malate dehydrogenase, …": "AKVAVLGASGGIGQPLSLLLKNSPLVSRLTLYDIAHTPGVAADLSHIETKAAVKGYLGPEQLPDCLKGCDVVVIPAGVPRKPGMTRDDLFNTNATIVATLTAACAQHCPEAMICVIANPVNSTIPITAEVFKKHGVYNPNKIFGVTTLDIVRANTFVAELKGLDPARVNVPVIGGHAGKTIIPLISQCTPKVDFPQDQLTALTGRIQEAGTEVVKAKAGAGSATLSMAYAGARFVFSLVDAMNGKEGVVECSFVKSQETECTYFSTPLLLGKKGIEKNLGIGKVSSFEEKMISDAIPELKASIKKGEDFVKTLK"}, "B5": {"name": "sp¦Q15654¦TRIP6_HUMAN (protein, UniProt Q15654 1-476, looked up)", "Thyroid receptor-interacting …": "MSGPTWLPPKQPEPARAPQGRAIPRGTPGPPPAHGAALQPHPRVNFCPLPSEQCYQAPGGPEDRGPAWVGSHGVLQHTQGLPADRGGLRPGSLDAEIDLLSSTLAELNGGRGHASRRPDRQAYEPPPPPAYRTGSLKPNPASPLPASPYGGPTPASYTTASTPAGPAFPVQVKVAQPVRGCGPPRRGASQASGPLPGPHFPLPGRGEVWGPGYRSQREPGPGAKEEAAGVSGPAGRGRGGEHGPQVPLSQPPEDELDRLTKKLVHDMNHPPSGEYFGQCGGCGEDVVGDGAGVVALDRVFHVGCFVCSTCRAQLRGQHFYAVERRAYCEGCYVATLEKCATCSQPILDRILRAMGKAYHPGCFTCVVCHRGLDGIPFTVDATSQIHCIEDFHRKFAPRCSVCGGAIMPEPGQEETVRIVALDRSFHIGCYKCEECGLLLSSEGECQGCYPLDGHILCKACSAWRIQELSATVTTDC"}, "B6": {"name": "sp¦P41250¦GARS_HUMAN (protein, UniProt P41250 37-739, looked up)", "Glycine--tRNA ligase": "SAASCPPISLPAAASRSSMDGAGAEEVLAPLRLAVRQQGDLVRKLKEDKAPQVDVDKAVAELKARKRVLEAKELALQPKDDIVDRAKMEDTLKRRFFYDQAFAIYGGVSGLYDFGPVGCALKNNIIQTWRQHFIQEEQILEIDCTMLTPEPVLKTSGHVDKFADFMVKDVKNGECFRADHLLKAHLQKLMSDKKCSVEKKSEMESVLAQLDNYGQQELADLFVNYNVKSPITGNDLSPPVSFNLMFKTFIGPGGNMPGYLRPETAQGIFLNFKRLLEFNQGKLPFAAAQIGNSFRNEISPRSGLIRVREFTMAEIEHFVDPSEKDHPKFQNVADLHLYLYSAKAQVSGQSARKMRLGDAVEQGVINNTVLGYFIGRIYLYLTKVGISPDKLRFRQHMENEMAHYACDCWDAESKTSYGWIEIVGCADRSCYDLSCHARATKVPLVAEKPLKEPKTVNVVQFEPSKGAIGKAYKKDAKLVMEYLAICDECYITEMEMLLNEKGEFTIETEGKTFQLTKDMINVKRFQKTLYVEEVVPNVIEPSFGLGRIMYTVFEHTFHVREGDEQRTFFSFPAVVAPFKCSVLPLSQNQEFMPFVKELSEALTRHGVSHKVDDSSGSIGRRYARTDEIGVAFGVTIDFDTVNKTPHTATLRDRDSMRQIRAEISELPSIVQDLANGNITWADVEARYPLFEGQETGKKETIEE"}, "B7": {"name": "sp¦P43034¦LIS1_HUMAN (protein, UniProt P43034 1-410, looked up)", "Platelet-activating factor …": "MVLSQRQRDELNRAIADYLRSNGYEEAYSVFKKEAELDVNEELDKKYAGLLEKKWTSVIRLQKKVMELESKLNEAKEEFTSGGPLGQKRDPKEWIPRPPEKYALSGHRSPVTRVIFHPVFSVMVSASEDATIKVWDYETGDFERTLKGHTDSVQDISFDHSGKLLASCSADMTIKLWDFQGFECIRTMHGHDHNVSSVAIMPNGDHIVSASRDKTIKMWEVQTGYCVKTFTGHREWVRMVRPNQDGTLIASCSNDQTVRVWVVATKECKAELREHEHVVECISWAPESSYSSISEATGSETKKSGKPGPFLLSGSRDKTIKMWDVSTGMCLMTLVGHDNWVRGVLFHSGGKFILSCADDKTLRVWDYKNKRCMKTLNAHEHFVTSLDFHKTAPYVVTGSVDQTVKVWECR"}, "B8": {"name": "sp¦Q9UIG0¦BAZ1B_HUMAN (protein, UniProt Q9UIG0 1-1483, looked up)", "Tyrosine-protein kinase BAZ1B": "MAPLLGRKPFPLVKPLPGEEPLFTIPHTQEAFRTREEYEARLERYSERIWTCKSTGSSQLTHKEAWEEEQEVAELLKEEFPAWYEKLVLEMVHHNTASLEKLVDTAWLEIMTKYAVGEECDFEVGKEKMLKVKIVKIHPLEKVDEEATEKKSDGACDSPSSDKENSSQIAQDHQKKETVVKEDEGRRESINDRARRSPRKLPTSLKKGERKWAPPKFLPHKYDVKLQNEDKIISNVPADSLIRTERPPNKEIVRYFIRHNALRAGTGENAPWVVEDELVKKYSLPSKFSDFLLDPYKYMTLNPSTKRKNTGSPDRKPSKKSKTDNSSLSSPLNPKLWCHVHLKKSLSGSPLKVKNSKNSKSPEEHLEEMMKMMSPNKLHTNFHIPKKGPPAKKPGKHSDKPLKAKGRSKGILNGQKSTGNSKSPKKGLKTPKTKMKQMTLLDMAKGTQKMTRAPRNSGGTPRTSSKPHKHLPPAALHLIAYYKENKDREDKRSALSCVISKTARLLSSEDRARLPEELRSLVQKRYELLEHKKRWASMSEEQRKEYLKKKREELKKKLKEKAKERREKEMLERLEKQKRYEDQELTGKNLPAFRLVDTPEGLPNTLFGDVAMVVEFLSCYSGLLLPDAQYPITAVSLMEALSADKGGFLYLNRVLVILLQTLLQDEIAEDYGELGMKLSEIPLTLHSVSELVRLCLRRSDVQEESEGSDTDDNKDSAAFEDNEVQDEFLEKLETSEFFELTSEEKLQILTALCHRILMTYSVQDHMETRQQMSAELWKERLAVLKEENDKKRAEKQKRKEMEAKNKENGKVENGLGKTDRKKEIVKFEPQVDTEAEDMISAVKSRRLLAIQAKKEREIQEREMKVKLERQAEEERIRKHKAAAEKAFQEGIAKAKLVMRRTPIGTDRNHNRYWLFSDEVPGLFIEKGWVHDSIDYRFNHHCKDHTVSGDEDYCPRSKKANLGKNASMNTQHGTATEVAVETTTPKQGQNLWFLCDSQKELDELLNCLHPQGIRESQLKERLEKRYQDIIHSIHLARKPNLGLKSCDGNQELLNFLRSDLIEVATRLQKGGLGYVEETSEFEARVISLEKLKDFGECVIALQASVIKKFLQGFMAPKQKRRKLQSEDSAKTEEVDEEKKMVEEAKVASALEKWKTAIREAQTFSRMHVLLGMLDACIKWDMSAENARCKVCRKKGEDDKLILCDECNKAFHLFCLRPALYEVPDGEWQCPACQPATARRNSRGRNYTEESASEDSEDDESDEEEEEEEEEEEEEDYEVAGLRLRPRKTIRGKHSVIPPAARSGRRPGKKPHSTRRSQPKAPPVDDAEVDELVLQTKRSSRRQSLELQKCEEILHKIVKYRFSWPFREPVTRDEAEDYYDVITHPMDFQTVQNKCSCGSYRSVQEFLTDMKQVFTNAEVYNCRGSHVLSCMVKTEQCLVALLHKHLPGHPYVRRKRKKFPDRLAEDEGDSEPEAVGQSRGRRQKK"}},
  "test_system": "human HL60 cells",
  "test": "SWATH-MS proteomics, differential protein representation, akirin2 KO vs WT HL60 cells",
  "assay_type": "cell-based",
  "conditions": "akirin2 KO vs WT HL60 cells; sheet \"Under-represented in KO\"",
  "outline": "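Proteins from WT and akirin2 KO HL60 cells (n=3 biological replicates) were FASP trypsin-digested and analyzed by SWATH-MS DIA with variable windows against an IDA-derived spectral library. Identifications at 1% global FDR; quantities normalized to total area sums of all detected proteins.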",
  "data": [
    {"molecule": "B1", "values": [
      {"measurement": "Fold Change", "result": 0.3066},
      {"measurement": "Log (Fold Change)", "result": -0.5134}
    ]},
    {"molecule": "B2", "values": [
      {"measurement": "Fold Change", "result": 0.6832},
      {"measurement": "Log (Fold Change)", "result": -0.1655}
    ]},
    {"molecule": "B3", "values": [
      {"measurement": "Fold Change", "result": 0.6822},
      {"measurement": "Log (Fold Change)", "result": -0.1661}
    ]},
    {"molecule": "B4", "values": [
      {"measurement": "Fold Change", "result": 0.6852},
      {"measurement": "Log (Fold Change)", "result": -0.1642}
    ]},
    {"molecule": "B5", "values": [
      {"measurement": "Fold Change", "result": 0.6873},
      {"measurement": "Log (Fold Change)", "result": -0.1629}
    ]},
    {"molecule": "B6", "values": [
      {"measurement": "Fold Change", "result": 0.6839},
      {"measurement": "Log (Fold Change)", "result": -0.165}
    ]},
    {"molecule": "B7", "values": [
      {"measurement": "Fold Change", "result": 0.6845},
      {"measurement": "Log (Fold Change)", "result": -0.1646}
    ]},
    {"molecule": "B8", "values": [
      {"measurement": "Fold Change", "result": 0.6821},
      {"measurement": "Log (Fold Change)", "result": -0.1661}
    ]}
  ]
}
